“Also recorded” adds a separate entry of the source. Where no end group is shown, it is not given here.
Tests used:
CypA [1] = molecular target: T1, CypA (Homo sapiens, UniProt P62937); assay: 15N TROSY CPMG-RD of ligand-saturated CypA; format: biochemical
CypA [2] = molecular target: T1, CypA; settings: percent weaker than GSFGPDLRAGD; cited from earlier work
CypA [3] = molecular target: T1, CypA; settings: cited from earlier work
[4] = 2H,15N CypA, saturating TA-peptide (6 mM), 10 °C

T1 sequence (P62937 whole entry): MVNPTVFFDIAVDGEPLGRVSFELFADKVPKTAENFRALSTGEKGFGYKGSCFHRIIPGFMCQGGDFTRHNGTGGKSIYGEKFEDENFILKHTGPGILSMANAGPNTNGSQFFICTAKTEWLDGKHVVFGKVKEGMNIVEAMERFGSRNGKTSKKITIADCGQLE

Row | Substance | chemical exchange rate throughout most of the active site (CypA [1]; [4]) | rate of motions, loop residues ~65–78 and ~108–110 (CypA [1]; [4]) | active site dynamics as compared to CypA:peptide complex (CypA [1]; 2H,15N CypA, saturating TA-peptide, much of the active site) | binding relative to the standard GSFGPDLRAGD peptide (weaker) (CypA [2]) | isomerization by CypA (CypA [3]) | exchange throughout most of the active site (CsA) (CypA [1]; 2H,15N CypA (0.5 mM), CsA 0.7 mM, 10 °C)
1 | TA-peptide: substrate for which the G-P peptide bond in the peptide is replaced by a thioamide bond (GSFGPDLRAGD; also: G-P peptide bond replaced by thioamide bond) | ~ 300 s^−1 | ~ 2000 s^−1 | slowed dramatically | ~ 50% | not isomerized by CypA | 
2 | cyclosporine A [CsA, reference compound] |  |  |  |  |  | quenched by CsA throughout most of the active site; also recorded: completely quenched
